From patent publication US12624112 (MABWELL SHANGHAI BIOSCIENCE, dated 2026)

T1: ST2 on KU812 cells (UniProt Q01638 19-556, limits assumed)
T1 sequence (looked up): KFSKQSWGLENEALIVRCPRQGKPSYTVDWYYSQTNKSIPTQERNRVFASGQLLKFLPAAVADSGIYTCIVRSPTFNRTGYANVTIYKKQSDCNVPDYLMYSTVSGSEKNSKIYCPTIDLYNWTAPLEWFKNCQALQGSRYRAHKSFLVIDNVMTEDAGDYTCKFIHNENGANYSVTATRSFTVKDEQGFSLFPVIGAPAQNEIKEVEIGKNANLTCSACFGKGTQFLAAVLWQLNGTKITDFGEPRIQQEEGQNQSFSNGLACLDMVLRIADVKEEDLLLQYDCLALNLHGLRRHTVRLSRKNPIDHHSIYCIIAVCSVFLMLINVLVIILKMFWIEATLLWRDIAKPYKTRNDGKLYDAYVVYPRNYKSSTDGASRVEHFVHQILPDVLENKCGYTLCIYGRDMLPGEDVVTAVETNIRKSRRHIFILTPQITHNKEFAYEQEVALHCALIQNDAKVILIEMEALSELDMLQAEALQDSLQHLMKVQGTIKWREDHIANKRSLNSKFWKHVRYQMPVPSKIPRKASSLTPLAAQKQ

T2: Cyno ST2-fc (cyno; human, UniProt A0A2K5UDB8 19-331)
T2 construct: also called cyno ST2 fused with a human IgG1 Fc tag at the C-terminus
T2 sequence: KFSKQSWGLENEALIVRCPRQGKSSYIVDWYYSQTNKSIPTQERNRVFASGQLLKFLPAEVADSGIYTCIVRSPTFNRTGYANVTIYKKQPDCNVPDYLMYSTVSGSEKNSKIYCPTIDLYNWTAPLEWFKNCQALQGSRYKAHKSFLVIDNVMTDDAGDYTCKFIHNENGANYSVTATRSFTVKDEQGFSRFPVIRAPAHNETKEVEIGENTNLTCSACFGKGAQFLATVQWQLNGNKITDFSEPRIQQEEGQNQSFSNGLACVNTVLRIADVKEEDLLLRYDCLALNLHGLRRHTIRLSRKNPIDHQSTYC

T3: Human ST2-his (human, UniProt Q01638 19-328)
T3 construct: Expressed in CHO-K1; also called human ST2 fused with a 6-histidine tag at the C-terminus
T3 sequence: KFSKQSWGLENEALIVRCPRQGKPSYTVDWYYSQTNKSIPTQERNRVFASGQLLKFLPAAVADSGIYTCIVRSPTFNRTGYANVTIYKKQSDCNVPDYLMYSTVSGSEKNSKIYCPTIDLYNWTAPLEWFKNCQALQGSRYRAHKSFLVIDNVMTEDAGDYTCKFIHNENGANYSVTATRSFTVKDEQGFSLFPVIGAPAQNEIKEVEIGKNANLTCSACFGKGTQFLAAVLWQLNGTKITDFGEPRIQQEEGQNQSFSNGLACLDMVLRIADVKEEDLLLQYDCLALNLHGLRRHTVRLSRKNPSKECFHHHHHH


Tests used:
ST2 on KU812 cells [1] = molecular target: T1, ST2 on KU812 cells; experiment: cell-based or functional assay
Cyno ST2-fc [2] = molecular target: T2, Cyno ST2-fc; experiment: ELISA, coated cyno ST2-fc
Procedure: Cyno ST2-fc was diluted with a coating buffer to 1 μg/mL, added into 96-well plates at 50 μL/well and coated overnight at 4° C. Next day, the coated plates were taken, washed with PB ST for 3 times, and then incubated using a blocking buffer at room temperature for 1 hr. Subsequently, the plates were washed with PBST for 3 times again. Starting at 1000 ng/mL, each murine antibody was diluted 3-fold to obtain serial dilutions of 8 concentrations in total which were then added into the 96-well plates at 50 μL/well. The plates were incubated at room temperature for 1 hr, washed with PB ST for 3 times; and then a goat anti-mouse secondary antibody (1:10000) was added at 50 μL/well into the 96-well plates which subsequently were incubated at room temperature for 1 hr. The 96-well plates were washed with PB ST for 3 times, and TMB was added at 50 μL/well to develop color in dark for 10 min. Afterwards, 2 M sulfuric acid was added to stop reaction; and GD values at 450 nm were read by a microplate reader. It can be seen that the murine antibodies can bind to cyno ST2, with a binding trendency consistent with the binding to human ST2.

Human ST2-fc (human) = Human ST2-fc (human) (UniProt Q01638); experiment: competition ELISA, coated ST2-fc, competitor IL33-his
ST2 on KU812 cells [3] = molecular target: T1, ST2 on KU812 cells; experiment: cell-based or functional assay; remark: listed apart in the source
Human ST2-his [4] = molecular target: T3, Human ST2-his; experiment: ELISA, coated human ST2-his
Procedure: Human ST2-his was diluted with a coating buffer to 1 μg/mL, added into plates at 50 μL/well, and coated overnight at 4° C. Next day, the coated plates were taken, washed with PBST for 3 times, and then incubated using a blocking buffer at room temperature for 1 hr. Subsequently, the plates were washed with PBST for 3 times again. Starting at 100 ng/mL, each murine antibody was diluted 3-fold to obtain serial dilutions of 8 concentrations in total which were then added into the 96-well plates at 50 μL/well. The plates were incubated at room temperature for 1 hr, washed with PBST for 3 times; and then a goat anti-mouse secondary antibody (1:10000) was added at 50 μL/well into the 96-well plates which subsequently were incubated at room temperature for 1 hr. The 96-well plates were washed with PBST for 3 times, and TMVB was added at 50 μL/well to develop color in dark for 10 min. Afterwards, 2 M sulfuric acid was added to stop reaction; and GD values at 450 nm were read by a micro-plate reader.

Human ST2-his [5] = molecular target: T3, Human ST2-his; experiment: SPR Biacore X100, antibody on protein A, ST2-his analyte
Procedure: On the basis of the results of the quantitative screenings of murine antibodies above together, 19 murine antibodies were selected for affinity determination and in vitro pharmacological study. The experiment on the interaction between the anti-human ST2 antibodies and human ST2-his was performed using Biacore X100, and was carried out at 25° C. in HBS-EP (1×) buffer (pH 7.4).
Each anti-human ST2 antibody was diluted to 10 nM and captured on the surface of a protein A chip (for a capture time of 60 s). […] Association was monitored for 4 min and dissociation for 10 min, and the sensor surface was regenerated by injecting a solution of glycine at pH 2.0. Data generated for kinetics and affinity assay were analyzed using BIAevaluation software.

Cyno ST2-fc [6] = molecular target: T2, Cyno ST2-fc; experiment: SPR Biacore X100, antibody on CM5, cyno ST2-fc analyte
Procedure: The experiment on the interactions between the anti-human ST2 antibodies and cyno ST2-fc was performed using Biacore X100, and was carried out at 25° C. in HBS-EP (1×) buffer (pH 7.4). Each antibody was immobilized on the surface of CM5 chip using an amino coupling kit. Following the antibody immobilization, a solution of cyno ST2-fc (2-fold gradient dilution from a starting concentration of 8 nM, to obtain 6 concentrations in total; the starting concentration might be increased if the signal of some sample was too low) was injected. Association was monitored for 2 min and dissociation for 10 min, and the sensor surface was regenerated by injecting a solution of glycine at pH 1.5.

Binder | IC50, activation of KU812-NF-κB reporter gene by IL33 (ST2 on KU812 cells [1]) [µg/mL] | Relative activity (%) compared with CNTO7160, KU812-NF-κB reporter (ST2 on KU812 cells [1]) [%] | EC50 (Cyno ST2-fc [2]) [µg/mL] | Relative activity (%) (Cyno ST2-fc [2]) | IC50 (Human ST2-fc (human)) [µg/mL] | Relative activity (%) compared with CNTO7160 (Human ST2-fc (human)) [%] | Maximum inhibition rate (%), KU812 IL-5 production (ST2 on KU812 cells [3]) [%] | Relative activity (%), KU812 IL-5 production (ST2 on KU812 cells [3]) [%] | EC50 (Human ST2-his [4]) [µg/mL] | Relative activity (%) compared with CNTO7160 (Human ST2-his [4]) [%] | Kd (Human ST2-his [5]) [nM] | koff (Human ST2-his [5]) [s⁻¹] | kon (Human ST2-his [5]) [M⁻¹ s⁻¹] | Kd (Cyno ST2-fc [6]) [nM] | koff (Cyno ST2-fc [6]) [s⁻¹] | kon (Cyno ST2-fc [6]) [M⁻¹ s⁻¹]
5888-116H1+L1 (antibody, V domains shown, murine antibody) VH: QVQLQQSGAELVRPGASVTLSCKASGYTFTDSEMYWVRLTPVHGLEWIGAIDPETGDTAFNQKFKGKATLTADKSSSTAYMELRSLTSEDSVVYYCTRAFDNDNDDGFAYWGQGTLVTVSA VL: QIVMTQSPAIMSASPGEKVTMTCSASSSVNYMHWYQQKSGTSPKRWIYDTSKLASGVPARFSGSGSGTSYSLTISSMEAEDAATYYCQQWSSNPLTFGAGTKLELK | 0.206 | 122 | 0.0384 | 63.7 | 0.9 | 65.2 | 81.4 | 238 | 0.0288 | 63.4 | 0.113 | 0.00111 | 9.87e+06 | 0.0469 | 0.000382 | 8.14e+06
5888-357H+L (antibody, V domains shown, murine antibody) VH: QVQLQQSVTELVRPGASVTLSCKASGYRFTDSEMHWVKQTPVHGLEWIGTIDPETGGTVYNQKFKGKAKLTADRSSSTVSMELRSLTSEDSAVYYCTRAFYNDFDDGFAYWGQGTLVTVSA VL: QIVMTQSPAIMSASPGEKVTLTCSASTSVSYMHWYQQKSGTSPKRWIYDTSKLASGVPARFSGSGSGTSYSLTISSMEAEDAATYYCQQWSSNPLTFGAGTKLELK | 0.0552 | 454 | 0.0192 | 127 | 0.62 | 94.7 | 71 | 98.5 | 0.0113 | 124 | 0.16 | 0.0007 | 4.38e+06 | 0.129 | 0.000826 | 6.41e+06
5888-153H1+L2 (antibody, V domains shown, murine antibody) VH: QVQLQQSGAELVRPGASVTLSCKASGYTFTDYELHWVKQTPVHGLEWIGTIDPETGDTVYNQKFKAKAILTADKSSSTAYMEFRSLTSEDSAVCYCTRAFYNDYDDGFAYWGQGTLVTVSA VL: QIVMTQTPAIMSASPGEKVTMTCSVSSSVSYMHWYQQKSGTSPKRWIYDTSKLASGVPARFSGSGSGTSYSLTINNMEAEDAATYYCQQWNSSPLTFGAGTKLELK | 0.0495 | 506 | 0.0303 | 80.7 | 0.75 | 78.4 | 86 | 115 | 0.0209 | 87.4 | 0.0943 | 0.000864 | 9.17e+06 | 0.143 | 0.00139 | 9.68e+06
5888-379H1+L2 (antibody, V domains shown, murine antibody) VH: QIQLAQSGPELKKPGETVKISCKASGYTFINYGMNWVKQAPGKDLKWMGWINTYIGEPTYGDNFKGRFAFSLETSASTVYLQINNLKNEDTATYFCAREGDGFAYWGQGTLVTVSA VL: DIVMTQSPPSLSVSVGEKVTMSCKSSQSLLYSGNQNNYLAWYQQKPGQPPKLLIYGASTRESGVPDRFTGSGSGTDFTLTISSVQAEDLAVYYCQNDHSYPYTFGGGTKLEIK | 0.391 | 64.2 | 0.0602 | 40.6 | 0.83 | 70.1 | 92.7 | 19.2 | 0.0295 | 33.9 | 0.571 | 0.000546 | 957000 | 0.0317 | 0.000152 | 4.78e+06
